Experimental data taken from publication PMC11161652, “ASXLs binding to the PHD2/3 fingers of MLL4 provides a mechanism for the recruitment of BAP1 to active enhancers” (Nature Communications, 2024).
Positions count from the first letter of the chain named.

Assays:
Assay in all cases: other fluorescence titration; tryptophan fluorescence, 25 °C; 1.0 µM MLL4 PHD2/3 or MLL3 PHD2/3 with increasing peptide; excitation 295 nm; 20 mM Tris pH 7.2, 150 mM NaCl, 1 mM TCEP, 0.02% Tween20; average of three measurements
Settings in all cases: both partners purified
[1] = target: T1, PHD2 and PHD3 fingers of human MLL3 (aa 342-439) (human, UniProt Q8NEZ4 342-439)
T1 construct: PHD2 and PHD3 fingers of human MLL3 (KMT2C), aa 342-439; 15N-labelled for NMR titrations; also used unlabelled as the titrant against MLL3 PHD4; also called MLL3_(PHD2/3); MLL3 PHD2/3; source: E. coli BL21-CodonPlus, purified (glutathione agarose, PreScission cleavage; unlabeled proteins also SEC)
T1 sequence (looked up): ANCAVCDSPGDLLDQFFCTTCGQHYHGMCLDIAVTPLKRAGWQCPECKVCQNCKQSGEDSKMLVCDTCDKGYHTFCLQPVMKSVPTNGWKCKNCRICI

MLL4_(PHD2/3) E292K = target: T2, MLL4_(PHD2/3) E292K (human, UniProt O14686 227-324, E292K)
T2 construct: human MLL4 (KMT2D), aa 227-324; E292K is said to be found in cancers (Cosmic); source: E. coli BL21-CodonPlus, purified as WT
T2 sequence (looked up): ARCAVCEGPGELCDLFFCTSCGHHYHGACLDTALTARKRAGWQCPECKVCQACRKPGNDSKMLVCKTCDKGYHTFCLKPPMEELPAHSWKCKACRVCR

[2] = target: T3, PHD2 and PHD3 fingers of human MLL4 (aa 227-324) (human, UniProt O14686 227-324)
T3 construct: PHD2 and PHD3 fingers of human MLL4 (KMT2D), aa 227-324; also called MLL4_(PHD2/3); MLL4 PHD2/3; source: E. coli BL21-CodonPlus, purified (glutathione agarose, PreScission cleavage; unlabeled proteins also SEC)
T3 sequence (looked up): T2 sequence (looked up) with K66E

Kd [1]: 1400 nM
fold reduction in binding against wild type MLL4_(PHD2/3) (MLL4_(PHD2/3) E292K): ~14 fold
Kd [2]: 700 nM
B1: ASXL2 peptide (residues 650-670 of ASXL2) (peptide, UniProt Q76L83 650-670, looked up)
peptide: NRTGARTLADIKAKAQLVKAQ
notes: also called ASXL2 (aa 650-670); MBH of ASXL2; source: synthetic peptide (SynPeptide)
